Experimental data from the supplement of paper PMC7125110.
± gives the standard error. This sample holds only a part of the variants without activity.

B1: glmS ribozyme (parent)
chain: AUAAAAGCGCCAGAACUACAGAAAUGUAGUUGACGAGGAGGAGGUUUAUCGAAUUUUCGGCGGAUGCCUCCAAA

Key:
Conditions in all cases: with glucosamine-6-phosphate
glucosamine-6-phosphate [1] = variants of: B1; assay: self-cleavage kobs at 40 uM GlcN6P; higher = faster cleavage; RNA array
Outline: (§1)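 Tiles of sequenced MiSeq chips were imaged over ~14 h at 37 °C. On them, barcoded ribozyme variants had been transcribed in situ by E. coli RNA polymerase and were tracked via a hybridised Cy3 probe while glucosamine-6-phosphate (40 μM to 10 mM) in HEPES/KCl/Mg(OAc)2 buffer flowed in. Per-tile medians, normalised to baseline and to non-cleaving reference variants, were fit to one- or two-exponential decays for kobs, and weighted Michaelis–Menten fits gave kcat and KM.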

glucosamine-6-phosphate [2] = variants of: B1; assay: self-cleavage kobs at 640 uM GlcN6P; higher = faster cleavage; RNA array
Outline: as §1

glucosamine-6-phosphate [3] = variants of: B1; assay: self-cleavage kobs at 10000 uM GlcN6P; higher = faster cleavage; RNA array
Outline: as §1

glucosamine-6-phosphate [4] = variants of: B1; assay: self-cleavage kobs at 160 uM GlcN6P; higher = faster cleavage; RNA array
Outline: as §1

glucosamine-6-phosphate [5] = variants of: B1; assay: self-cleavage kobs at 2500 uM GlcN6P; higher = faster cleavage; RNA array
Outline: as §1

Row | Variant | self-cleavage kobs at 40 uM GlcN6P (glucosamine-6-phosphate [1]) [s⁻¹] | self-cleavage kobs at 640 uM GlcN6P (glucosamine-6-phosphate [2]) [s⁻¹] | self-cleavage kobs at 10000 uM GlcN6P (glucosamine-6-phosphate [3]) [s⁻¹] | self-cleavage kobs at 160 uM GlcN6P (glucosamine-6-phosphate [4]) [s⁻¹] | self-cleavage kobs at 2500 uM GlcN6P (glucosamine-6-phosphate [5]) [s⁻¹]
1 | A15C U30A G41C U45A C58U | < 1e-05 | – | – | – | –
2 | G13A C34G C50U C67G | 0.000108 ± 3.3e-05 | 0.00142 ± 0.00036 | 8.5e-05 ± 2.6e-05 | – | –
3 | G13C G29U G32A | 7.61e-05 ± 2.4e-05 | – | 0.00214 ± 0.00069 | – | –
4 | G13C A48G G66U C71G | < 1e-05 | – | < 1e-05 | – | –
5 | A14G C16G G38U C50G C67A | 0.000102 ± 1.6e-05 | – | 9.71e-05 ± 2.1e-05 | – | –
6 | G13A G35A | < 1e-05 | < 1e-05 | – | < 1e-05 | < 1e-05
7 | A14C C61G | < 1e-05 | – | < 1e-05 | – | –
8 | A15C U46A C58U | < 1e-05 | – | – | – | –
9 | A14G U30A | 0.000672 ± 0.00011 | 0.00759 ± 0.0013 | 0.017 ± 0.0042 | 0.00098 ± 0.00024 | 0.0384 ± 0.012
10 | G13A C16U C67U | < 1e-05 | – | 0.00025 ± 4.5e-05 | – | 0.000111 ± 2.7e-05
11 | A14C A15U G51C | < 1e-05 | – | – | – | –
12 | A14G G41A C67U | < 1e-05 | – | – | – | –
13 | A14U G51A | < 1e-05 | – | < 1e-05 | – | –
14 | A15G G66A | 0.000603 ± 8.4e-05 | 0.00506 ± 0.0011 | 0.0412 ± 0.011 | 0.00153 ± 0.00044 | 0.00542 ± 0.0014
15 | A14G A15U C67G | 5.43e-05 ± 1.3e-05 | – | 0.0027 ± 0.00046 | – | –
16 | G13C G35A | < 1e-05 | < 1e-05 | < 1e-05 | < 1e-05 | < 1e-05
17 | A15G G38U U47A C68G | 9.09e-05 ± 3.3e-05 | – | – | – | –
18 | A14U A53U C71U | 9.83e-05 ± 2.7e-05 | 0.000509 ± 8.6e-05 | 0.00546 ± 0.0013 | 0.00021 ± 4.5e-05 | 0.00145 ± 0.00032
19 | A14C A36C G63A U65C | < 1e-05 | – | < 1e-05 | < 1e-05 | –
20 | A14C C34U G60U | < 1e-05 | < 1e-05 | < 1e-05 | – | < 1e-05
21 | A14G G29U C34U | < 1e-05 | – | – | – | –
22 | G13U G43A C50A C61U C68U | < 1e-05 | – | – | – | –
23 | A14U U55G C61G | < 1e-05 | – | < 1e-05 | – | –
24 | G13A A14U U31C | 7.34e-05 ± 1.8e-05 | – | – | – | –
25 | A14G G29C G40A C58U | < 1e-05 | < 1e-05 | – | – | –

Row | Variant | self-cleavage kobs at 40 uM GlcN6P (glucosamine-6-phosphate [1]) [s⁻¹] | self-cleavage kobs at 640 uM GlcN6P (glucosamine-6-phosphate [2]) [s⁻¹] | self-cleavage kobs at 10000 uM GlcN6P (glucosamine-6-phosphate [3]) [s⁻¹] | self-cleavage kobs at 160 uM GlcN6P (glucosamine-6-phosphate [4]) [s⁻¹] | self-cleavage kobs at 2500 uM GlcN6P (glucosamine-6-phosphate [5]) [s⁻¹]
26 | A14C G32A A42U U54G | < 1e-05 | – | – | – | –
27 | G13C G60A | < 1e-05 | < 1e-05 | < 1e-05 | < 1e-05 | < 1e-05
28 | A14G C16U U45G C67U | 0.00026 ± 6.6e-05 | 0.00248 ± 0.0012 | – | 0.000132 ± 3e-05 | 0.00988 ± 0.0035
29 | A14C U49A G63A | < 1e-05 | – | – | – | –
30 | A14G A39G G41A U55G U69C A73U | < 1e-05 | – | – | – | –
31 | A15G G37C | < 1e-05 | – | 4.76e-05 ± 6.4e-06 | – | –
32 | A14C G62C G63A C68G | < 1e-05 | – | – | – | –
33 | A14C U31G A39U | 0.000119 ± 2.4e-05 | 0.0016 ± 0.00039 | 0.0112 ± 0.003 | – | –
34 | A14C G29U G38U G44A A64U | < 1e-05 | – | < 1e-05 | – | –
35 | A14U G41A G44A G60A | < 1e-05 | – | – | – | –
36 | G13A C16A A52U | < 1e-05 | – | < 1e-05 | – | < 1e-05
37 | G13U A36G | < 1e-05 | < 1e-05 | < 1e-05 | < 1e-05 | < 1e-05
38 | G13A C50G U55G U57G G62U | 8.98e-05 ± 2.1e-05 | – | 5.32e-05 ± 1.5e-05 | – | –
39 | A15C C16G | 5.89e-05 ± 1.4e-05 | 0.000438 ± 5.6e-05 | 0.00295 ± 0.00045 | – | –
40 | G13C G60A U65G G66C C71U | < 1e-05 | – | < 1e-05 | – | –
41 | G13C G44C | < 1e-05 | < 1e-05 | < 1e-05 | < 1e-05 | < 1e-05
42 | A12U U54C | 0.00204 ± 0.00025 | 0.0165 ± 0.0024 | 0.0931 ± 0.024 | 0.00477 ± 0.00085 | 0.0157 ± 0.0029
43 | A14C A15C C50G G60C C67U | 6.66e-05 ± 3e-05 | – | – | – | –
44 | G13U A33C | < 1e-05 | < 1e-05 | – | < 1e-05 | < 1e-05
45 | G13U A15U G43C U57C C58G | < 1e-05 | – | – | – | –
46 | A14G C50A G51A | < 1e-05 | – | – | – | < 1e-05
47 | A15C U55A C61G | < 1e-05 | – | < 1e-05 | – | –
48 | A14C A53C G62C C68G | < 1e-05 | – | < 1e-05 | – | –
49 | A15C G37A U57G C67G | < 1e-05 | – | < 1e-05 | – | –
50 | A15G G38C | < 1e-05 | < 1e-05 | – | < 1e-05 | < 1e-05
